Results reported in patent publication US6162627, “Methods of identifying inhibitors of sensor histidine kinases through rational drug design” (University of Medicine and Dentistry of New Jersey, dated 2000).

Legend:
[1] = target: EnvZ(C)(223-289) (Escherichia coli)
[2] = target: the molecule itself; assay: gel filtration (21.6 kDa) and dynamic light scattering (26.5 kDa) against a calculated molecular weight of 17.6 kDa

Molecule	phosphorylation activity on sub-domain A against that of H6-EnvZ(C)H1 [1]	binding result [2]
EnvZ(C)(290-450) (enzyme)	5%	
EnvZ(C)(290-450) (enzyme) TGQEMPMEMADLNAVLGEVIAAESGYEREIETALYPGSIEVKMHPLSIKRAVANMVVNAARYGNGWIKVSSGTEPNRAWFQVEDDGPGIAPEQRKHLFQPFVRGDSARTISGTGLGLAIVQRIVDNHNGMLELGTSERGGLSIRAWLPVPVTRAQGTTKEG		no binding
